According to US6436691B1, “Chemical compounds” (Zeneca Limited, priority 1995, dated 2002):

Tests used:
Format in all cases: biochemical
[1] = Conversion of Hipp-Asp by periplasmic shockate of HCPB mutants, 24 h (Example 18); conditions: shockate concentration in reaction mixture 50 %; 24 h at 37° C.
Experimental: (§1) The activity of [G251T,D253K]HCPB was measured using the assay conditions described in Example 17 but using either 50 μl of a neat or 1 in 10 or 1 in 100 dilution of [G251T,D253K]HCPB crude E.coli periplasmic shockate (shockate) sample in place of purified enzyme. Samples were incubated for 24 h at 37° C. […] For other HCPB mutants, the reaction volume was 250 μl and contained 125 μl of neat shockate or 1 in 50 dilution of shockate. The shockate samples were prepared as described in Example 16. The amount of Hippuric acid produced in 24 h was quantified by HPLC as described in Example 17 and the results are shown in Table 6 and are expressed as the percentage conversion of substrate into product in 24 h at 37° C.

[2] = Conversion of Hipp-Arg by purified HCPB mutants, 30 minutes, HPLC (Example 17); conditions: 0.5 mM substrate, 30 minutes at 37° C.
Experimental: (§2) Purified mutants of human CPB (D253K; [G251K,D253R]; [G251N,D253R]; [I201S,D253K]; [G251N,D253K]; [Q54R,D145A,D253K]; [G251T,D253K]; [G251S,D253K]; [A248N,G251N,D253K]; [A248S,G251N,D253K] and [S205N,G251N,D253K]—described in Examples 3, 12, 13, 16, 28, 30, 31, 32 and 33) were assayed for their ability to convert hippuryl-L-glutamic acid (Hipp-Glu—Reference Example 1), hippuryl-L-aspartic acid (Hipp-Asp—Reference Example 2) and hippuryl-L-arginine (Sigma Chemical Company—cat no. H6625) to hippuric acid using a HPLC based assay similar to that described in Example 6.
(§3) Samples were incubated for 30 minutes at 37° C. The reactions were terminated by the addition of 500 μl of 40% methanol, 60% distilled water, 0.2% trifluoro acetic acid and the amount of hippuric acid generated was quantitated by HPLC as described in Example 6 but using a mobile phase of 20% methanol, 80% 50 mM phosphate buffer, pH 6.5. Hippuric acid was detected at 230 nm. The results are shown in Table 5 and are expressed as the percentage conversion of substrate into product in 30 minutes at 37° C.

[3] = Conversion of Hipp-Glu by periplasmic shockate of HCPB mutants, 24 h (Example 18); conditions: 24 h at 37° C.
Experimental: as §1

[4] = Km and kcat of HCPB mutants with Hipp-Glu (Example 7); conditions: Hipp-Glu 0.25-8.0 mM; pH 7.5; 5 h at 37° C.
Experimental: Hipp-Glu and Hipp-Asp were diluted in range 0.25-8.0 mM and 0.25-5.0 mM respectively in 0.025 M Tris-HCL buffer, pH 7.5. Where necessary substrate samples were adjusted to pH 7.5 with 1M NaOH.
Samples were incubated for 5 h at 37° C. Reactions were terminated by the addition of 500 μl methanol/distilled water (80/20) containing 0.2% TFA. The amount of hippuric acid produced was quantified by HPLC as described in Example 6.
Km and Vmax values were calculated using the ENZFITTER software programme (Biosoft, Perkin Elmer).

[5] = Conversion of Hipp-Asp by purified HCPB mutants, 30 minutes, HPLC (Example 17); conditions: 0.5 mM substrate, 30 minutes at 37° C.
Experimental: as §2, §3

[6] = Conversion of Hipp-Glu by purified HCPB mutants, 30 minutes, HPLC (Example 17); conditions: 0.5 mM substrate, 30 minutes at 37° C.
Experimental: as §2, §3

[7] = Conversion of prodrug of Example 24 to drug of Example 25 by HCPB mutants, HPLC (Example 20); conditions: enzyme 15 μg/ml; 0.5 mM prodrug of Example 24; 5 minutes at 37° C.
Experimental: The reaction was stopped by adding MeCN (500 μl) plus 0.2% Trifluoroacetic acid. The amount of drug produced was then quantified by HPLC.
HPLC separation was carried out as described in Example 6 except that a mobile phase of 70% MeCN, 30% distilled water and 0.1% trifluoroacetic acid was used to achieve separation of prodrug (retention time 3.8 minutes) and drug (retention time 4.9 minutes) and the compounds were detected at 260 nm. The amount of drug produced was quantified from calibration curves generated with known amounts of drug.
The amount of [Q54R,D145A,D253K]HCPB and [G251T,D253K]HCPB mutants was reduced to 0.75 μg in the reaction mixture.

[8] = shockate concentration in reaction mixture 1 %
[9] = shockate concentration in reaction mixture 50 %

Molecule	Hipp-Asp (% conversion) [1]	Hipp-Arg (% conversion) ([2]; enzyme 0.25 μg/ml)	Hipp-Arg (% conversion) ([2]; enzyme 25 μg/ml)	Hipp-Glu (% conversion) [3, 8]	Hipp-Glu (% conversion) [3, 9]	Km [4]	kcat, Hipp-Glu [4]	Hipp-Asp (% conversion) ([5]; enzyme 0.25 μg/ml)	Hipp-Asp (% conversion) ([5]; enzyme 25 μg/ml)	Hipp-Glu (% conversion) ([6]; enzyme 0.25 μg/ml)	Hipp-Glu (% conversion) ([6]; enzyme 25 μg/ml)	Hipp-Arg (% conversion) ([2]; enzyme 0.5 μg/ml)	Hipp-Asp (% conversion) ([5]; enzyme 0.5 μg/ml)	Hipp-Glu (% conversion) ([6]; enzyme 0.5 μg/ml)	Prodrug Hydrolysis (%) [7]	Hipp-Arg (% conversion) ([2]; enzyme 2.5 μg/ml)	Hipp-Asp (% conversion) ([5]; enzyme 2.5 μg/ml)	Hipp-Glu (% conversion) ([6]; enzyme 2.5 μg/ml)
[A248S,G251T,D253K]HCPB: HCPB mutant with A248S, G251T and D253K, (His)6-c-myc tag (protein, UniProt P15086 111-417, looked up, variant A248S G251T D253K, (His)6-c-myc tag) Carboxypeptidase B: ATGHSYEKYNKWETIEAWTQQVATENPALISRSVIGTTFEGRAIYLLKVGKAGQNKPAIFMDCGFHAREWISPAFCQWFVREAVRTYGREIQVTELLDKLDFYVLPVLNIDGYIYTWTKSRFWRKTRSTHTGSSCIGTDPNRNFDAGWCEIGASRNPCDETYCGPAAESEKETKALADFIRNKLSSIKAYLTIHSYSQMMIYPYSYAYKLGENNAELNALAKATVKELASLHGTKYTYGPGATTIYPSAGTSKDWAYDQGIRYSFTFELRDTGRYGFLLPESQIRATCEETFLAIKYVASYVLEHLY	0.5%	0%	0%	20%	91.3%	1100 µM	19 s⁻¹	0%	5.5%	14.5%	93%	–	–	–	–	–	–	–
[G251N, D253K, T266G]: HCPB mutant with G251N, D253K and T266G, (His)6-c-myc tag (protein, UniProt P15086 111-417, looked up, variant G251N D253K T266G, (His)6-c-myc tag) Carboxypeptidase B: ATGHSYEKYNKWETIEAWTQQVATENPALISRSVIGTTFEGRAIYLLKVGKAGQNKPAIFMDCGFHAREWISPAFCQWFVREAVRTYGREIQVTELLDKLDFYVLPVLNIDGYIYTWTKSRFWRKTRSTHTGSSCIGTDPNRNFDAGWCEIGASRNPCDETYCGPAAESEKETKALADFIRNKLSSIKAYLTIHSYSQMMIYPYSYAYKLGENNAELNALAKATVKELASLHGTKYTYGPGATTIYPAAGNSKDWAYDQGIRYSFGFELRDTGRYGFLLPESQIRATCEETFLAIKYVASYVLEHLY	3.4%	–	–	–	0.95%	–	–	–	–	–	–	–	–	–	–	–	–	–
[A248N, G251T, D253K]: HCPB mutant with A248N, G251T and D253K, (His)6-c-myc tag (protein, UniProt P15086 111-417, looked up, variant A248N G251T D253K, (His)6-c-myc tag) Carboxypeptidase B: ATGHSYEKYNKWETIEAWTQQVATENPALISRSVIGTTFEGRAIYLLKVGKAGQNKPAIFMDCGFHAREWISPAFCQWFVREAVRTYGREIQVTELLDKLDFYVLPVLNIDGYIYTWTKSRFWRKTRSTHTGSSCIGTDPNRNFDAGWCEIGASRNPCDETYCGPAAESEKETKALADFIRNKLSSIKAYLTIHSYSQMMIYPYSYAYKLGENNAELNALAKATVKELASLHGTKYTYGPGATTIYPNAGTSKDWAYDQGIRYSFTFELRDTGRYGFLLPESQIRATCEETFLAIKYVASYVLEHLY	1%	–	–	53.5%	95%	–	–	–	–	–	–	–	–	–	–	–	–	–
[A248N, G251N, D253K]: HCPB mutant with A248N, G251N and D253K, (His)6-c-myc tag (protein, UniProt P15086 111-417, looked up, variant A248N G251N D253K, (His)6-c-myc tag) Carboxypeptidase B: ATGHSYEKYNKWETIEAWTQQVATENPALISRSVIGTTFEGRAIYLLKVGKAGQNKPAIFMDCGFHAREWISPAFCQWFVREAVRTYGREIQVTELLDKLDFYVLPVLNIDGYIYTWTKSRFWRKTRSTHTGSSCIGTDPNRNFDAGWCEIGASRNPCDETYCGPAAESEKETKALADFIRNKLSSIKAYLTIHSYSQMMIYPYSYAYKLGENNAELNALAKATVKELASLHGTKYTYGPGATTIYPNAGNSKDWAYDQGIRYSFTFELRDTGRYGFLLPESQIRATCEETFLAIKYVASYVLEHLY	0%	0%	1.4%	–	63.9%	–	–	0.6%	2.5%	25.3%	100%	–	–	–	–	–	–	–
[A248S, G251N, D253K]: HCPB mutant with A248S, G251N and D253K, (His)6-c-myc tag (protein, UniProt P15086 111-417, looked up, variant A248S G251N D253K, (His)6-c-myc tag) Carboxypeptidase B: ATGHSYEKYNKWETIEAWTQQVATENPALISRSVIGTTFEGRAIYLLKVGKAGQNKPAIFMDCGFHAREWISPAFCQWFVREAVRTYGREIQVTELLDKLDFYVLPVLNIDGYIYTWTKSRFWRKTRSTHTGSSCIGTDPNRNFDAGWCEIGASRNPCDETYCGPAAESEKETKALADFIRNKLSSIKAYLTIHSYSQMMIYPYSYAYKLGENNAELNALAKATVKELASLHGTKYTYGPGATTIYPSAGNSKDWAYDQGIRYSFTFELRDTGRYGFLLPESQIRATCEETFLAIKYVASYVLEHLY	1%	–	0%	–	46.1%	–	–	–	1.3%	–	86%	0%	0%	10.7%	–	–	–	–
[G251N,D253R]: HCPB mutant with G251N and D253R, (His)6-c-myc tag (protein, UniProt P15086 111-417, looked up, variant G251N D253R, (His)6-c-myc tag) Carboxypeptidase B: ATGHSYEKYNKWETIEAWTQQVATENPALISRSVIGTTFEGRAIYLLKVGKAGQNKPAIFMDCGFHAREWISPAFCQWFVREAVRTYGREIQVTELLDKLDFYVLPVLNIDGYIYTWTKSRFWRKTRSTHTGSSCIGTDPNRNFDAGWCEIGASRNPCDETYCGPAAESEKETKALADFIRNKLSSIKAYLTIHSYSQMMIYPYSYAYKLGENNAELNALAKATVKELASLHGTKYTYGPGATTIYPAAGNSRDWAYDQGIRYSFTFELRDTGRYGFLLPESQIRATCEETFLAIKYVASYVLEHLY	–	–	0%	–	–	–	–	–	9.4%	–	57%	–	–	–	66.7%	0%	1.4%	8.8%
[S205N, G251N, D253K]: HCPB mutant with S205N, G251N and D253K, (His)6-c-myc tag (protein, UniProt P15086 111-417, looked up, variant S205N G251N D253K, (His)6-c-myc tag) Carboxypeptidase B: ATGHSYEKYNKWETIEAWTQQVATENPALISRSVIGTTFEGRAIYLLKVGKAGQNKPAIFMDCGFHAREWISPAFCQWFVREAVRTYGREIQVTELLDKLDFYVLPVLNIDGYIYTWTKSRFWRKTRSTHTGSSCIGTDPNRNFDAGWCEIGASRNPCDETYCGPAAESEKETKALADFIRNKLSSIKAYLTIHSYSQMMIYPYNYAYKLGENNAELNALAKATVKELASLHGTKYTYGPGATTIYPAAGNSKDWAYDQGIRYSFTFELRDTGRYGFLLPESQIRATCEETFLAIKYVASYVLEHLY	0%	–	0.2%	–	14.1%	–	–	–	0.48%	–	85%	0%	0%	7.9%	–	–	–	–
